# Assay results published in the DeepSol protein solubility set.
# Assay: soluble on expression in E. coli; label from the status in PepcDB or PDB records
row,Sequence,soluble on expression in E. coli
1,MKKIAIIGGGIIGMTLANYLDPQKFDITVYDEGLGQATKASAGIISPWLSKRRNKKWYQLAREGAALFPKLVKDFQLTEDIYRQSGTVILRPAAALADLAHLAEERKQTAPEIGEITMLSAVQTAKFLPLLKETPSLFISGGGRLDGPAYLNHLQKRAEAKGVTFCSQRAHFRQLNQGWEIVTNSEKKSVDFLALTPGPHLKELLTTLNLSVDIRPQKGQLLVFETPFTNSQQWPVAMLDGEADLIPFNQGKILLGATHENEQAWDLEETVSAFQQLTSGTAPFLKEAEQLFKQPMHYRVGTRAYTSDFAPFFGPLPEMPHLVVASGLGSSGLTTGPFIGYQLAEYFNTGAFKGELYQKPLSQYVKNNPSL,not soluble
2,MGTASYPDPEIRALAEKITANATSDLEKVKAIESYLKNNYINTYVERTDVKEFLFKTKRGTAREFATAFVLLAQSIGIPARAVFGYLADPVETNQTIFASDAYVWAEVRFKEGWMEFDPAPEGRG,soluble
3,MTNPLLTPFELPPFSKILPEHVVPAVTKALNDCRENVERVVAQGAPYTWENLCQPLAEVDDVLGRIFSPVSHLNSVKNSPELREAYEQTLPLLSEYSTWVGQHEGLYKAYRDLRDGDHYATLNTAQKKAVDNALRDFELSGIGLPKEKQQRYGEIATRLSELGNQYSNNVLDATMGWTKLVTDEAELAGMPESALAAAKAQAEAKELEGYLLTLDIPSYLPVMTYCDNQALREEMYRAYSTRASDQGPNAGKWDNSKVMEEILALRHELAQLLGFENYAFKSLATKMAENPQQVLDFLTDLAKRARPQGEKELAQLRAFAKAEFGVDELQPWDIAYYSEKQKQHLYSISDEQLRPYFPENKAVNGLFEVVKRIYGITAKERKDVDVWHPDVRFFELYDENNELRGSFYLDLYARENKRGGAWMDDCVGQMRKADGSLQKPVAYLTCNFNRPVNGKPALFTHDEVITLFHEFGHGLHHMLTRIETAGVSGISGVPWDAVELPSQFMENWCWEPEALAFISGHYETGEPLPKELLDKMLAAKNYQAALFILRQLEFGLFDFRLHAEFRPDQGAKILETLAEIKKLVAVVPSPSWGRFPHAFSHIFAGGYAAGYYSYLWADVLAADAFSRFEEEGIFNRETGQSFLDNILSRGGSEEPMDLFKRFRGREPQLDAMLEHYGIKG,soluble
4,MSLGELLFNRSFENTKPVSESNSWYTCYRGDVKEAKWWHSGYEEPKWYLLADGRKEEKLPLIFNNYWPSAHGKYFLQIDNRKKQIPTLLVQERIYIEKGKGYTVSGLFSSGGYLSEEKYSKESVPVTIAIYKEGDFHTPLSKTELAVNTNQFILYSSSLDATEYEGWCTYTIEVPAGGCVGIDLLSLMADDVIKGWKRESVERIKNELRPRTMRMPGGCFTSLYDWRSGIGPREERPVSYDTWWGCELLNDVGTFELVDLCEAVGAEPFFCVPVMFNNEYSAADWVDFCNNPTNAQRIAYGRTKPLNVKYWELENEPYRRFDAVTYANRCVDFAKAMKAKDPSIKIAVGNYWLFNKKFKEMLEIVGPYVDLITNRGGTPEEMRADIVILDAYNKAHGTDIKLCHTEFRAPVTRNEGNTDGLNQKDTGGEETLFNASIRWGFAMNMVEQYIAYQNMGGSFFTANYTNLSDGWGECLINTPKEGTYLNAPGVAFALLNSLDIAYPQIIEQEKENQDIVIQAAWNKRRDKLTLVVLNFSQNTQPCKIDFSQIKKSFRVRKGMKIAPQSDLSFNTLQHPEEVKVEEGHHHHHH,soluble
5,SYFSIFSPSFTSLRHDGKPVQCSGLDMQFDPSEPGFYDDPDLSYSIEKPITKWDEKRNQWFESHPSFKPGSENRIVMVTGSQSSPCKNPIGDHLLLRCFKNKVDYARIHGHDIFYSNSLLHPKMNSYWAKLPVVKAAMLAHPEAEWIWWVDSDAIFTDMEFKPPLHRYRQHNLVVHGWPNIIYEKQSWTALNAGVFLIRNCQWSMDLIDTWKSMGPVSPDYKKWGPIQRSIFKDKLFPESDDQTALIYLLYKHKELYYPKIYLEAEYYLQGYWIGVFGDFANVTERYLEMEREDDTLRRRHAEKVSERYGAFREERFLKGEFGGRGSRRRAFITHFTGCQPCSGDHNPSYDGDTCWNEMTRALNFADNQVMRVYGYVHSDLSKTSPLQPLPFDYPNEAW,soluble
6,SNQEPATILLIDDHPMLRTGVKQLISMAPDITVVGEASNGEQGIELAESLDPDLILLDLNMPGMNGLETLDKLREKSLSGRIVVFSVSNHEEDVVTALKRGADGYLLKDMEPEDLLKALHQAAAGEMVLSEALTPVLAASLRANRATTERDVNQLTPRERDILKLIAQGLPNKMIARRLDITESTVKVHVKHMLKKMKLKSRVEAAVWVHQERIF,soluble
7,MGHHHHHHSHMVTASRYYPQLMSLVGNVLRFLPAFVRMKQLISEHYVGAVMICDARIYSGSLLSPSYGWICDELMGGGGLHTMGTYIVDLLTHLTGRRAEKVHGLLKTFVRQNAAIRGIRHVTSDDFCFFQMLMGGGVCSTVTLNFNMPGAFVHEVMVVGSAGRLVARGADLYGQKNSATQEELLLRDSLAVGAGLPEQGPQDVPLLYLKGMVYMVQALRQSFQGQGDRRTWDRTPVSMAASFEDGLYMQSVVDAIKRSSRSGEWEAVEVLTEEPDTNQNLCEALQRNNL,not soluble
8,MAHHHHHHMSTSLRHTALHAFHVGRRARMAPFSGYDMPINYAAGAVREHLHTREAASIFDVSHFGVVEVFGADREKFLEWLTPSAPSRMPSGKAALTMFLNDRAGVKDDCIVTRYDDRLVVVVNAGCKDKMIAYMRQSVADFTGDVALEMEDRAIVTVQGPKAASALAPHVEDLDKLLFMQGRQDVDIRGMRIKTLTRCSYSGEDGFDIVMREEDALPIVELLLQNPDVQAAGLAARDTLRTEAGLNLYSHELSEDIDPVAARCMWCVPKHRMTEGGFVGHERLAQLVKKAKELVPRVRVGILAAPERGPIPRNGTPVLVEGKCVGVVTSGVPSPTLGRNIALGYVDRSYSNIGQQVGLDVRGKLVKAEIVNSRFVAPRYYRG,not soluble
9,GLGEKKEGHFSALPSLPVGSHAKVSSPQPRGPRYAEGTFISDYSIAMDKIHQQDFVNWLLAQKGKKNDWKHNITQREARALELASQANRKEEEAVEPQSSPAKNPSDEDLLRDLLIQELLACLLDQTNLCRLRSR,soluble
10,MGSDKIHHHHHHMILVLFYRTTKSHQTHSRHMSVNTTELSIEIIDIVSDRDGARLRDIVEEVDVAKSTAHKHLTTLRDSGFLVKRGEIYQVGLRFLNYGEQARSRWPGYPHIEEAIAALTERTEEECDFVAPDRGRVITIAESYHKWAKFEGTTTDGPSKEYRARTGSYYHMHATASGLAVLSTYSKSRVEDVIERWGLPARTDHTITSREELHAELEQIRERGYAVDDQGYTDGMRSIGKAVHGPEGDVIGALSVSGPTYRVDGMVLEQEVPNALRDVVDELEERLRTTN,not soluble
11,MPRKLLEERSTGSATKWLREEEKIEKKSRADQLKIKFMQTRDNSDINSIFSEPPSEFSVLCDDDDCDKGSVVSSTLTTSIRKTFSSFRFDENQRKKGTRKRRSSEKGRICRRKVHIILARNMLRKENELYKKDAEYCQTPRAVADGCSFSTLPTI,not soluble
12,MSLGTRAPSFTPERSVEISGGEDGYFQARGTISGPLGETLAGRLSAYRTRDDGYVKNLHDGNTLNGGARQGFRGQLLFKPNDDFSLRWIGDYNEEDSDNGVLTLFSSGPTVNGVNRYEQRAAAAGATLVDGHRRKVNFDSDQQVTVFQGGTSVEANWKLANDFTLTSISAYRWWDFTPRNDDGLDVPAAYNAGVSVRDKQWSQEIRLASPSGGFFDYVLGAYYFGQDLDNKSFTDYGPRADIWNGTPAGALSDVSTRGRGHIDTDSYALFAQGTWHLTERLDLTAGVRGTYEEKSAWVEREGHHHHHH,soluble
13,MGSDKIHHHHHHLDPFASPQNLDKELRSLLAQASSNLCDWFAESASQGPMPYSFELPEVYPAKEGVSNDVLLSELQLLMDGSYRPSHPGSLAHLDPPPLSASIAGELICAGLNNNLLADELSPSLSSLERNLCKWFCHKLGLGDLSGGVAASGGSLSNLMALVMARNNSGLETDPKAVFFASHDCHVSFSKAFRIMGLKQESLQKVSTDENGALNISSLRTSLNKIKSQGKKCFAVVATAGTTVRGAIDPLSEIAKFCKKENVWFHVDGSIGGIYGLSEMTSEIVQGLGFADSLTINPQKLLGIPKTSSLLLVANKNHLSSTFSTGLPYVEPISGNDFHGGELGIQGTRSAETLKLWIGLRQLGEEGIEKILLGSIKRRCYLESIIDRSKFKIISGPLHLLAFTPINYSSSQSSDWSLKTRNSLLANKFMLSRPMYGHRYYLKAVMGNPNTKFDDLKMLANLINHSIS,not soluble
14,MGSDKIHHHHHHMTSQDTADTGMADMDMTDTGMFLAKADIFASLTPEEDRAWSQLCTVESVSGGTIVLDYGIRPEIVLVVLSGALRATLRVSAGKELFLDMIGPGGTMAEMDAIRAEGYNLCLMATTDATLVRMPVDVFNDIIAQKHTVCLSLLSVLVQRMHVLHARICEFSYLDVRHRLYTTLLRLSKPSEDKPQQRTISPVIIHAALAEHVGARRETVSREMSRLVQDGVIERNRNAIVIRQPHELLRRLSQFDFA,not soluble
15,MGSDKIHHHHHHMTRYKLSAEVSFSKPSEIMGRLYILPYRDNAQKVLHFNIDHPSFCKVSINQDRFRNEHLDFKCNPSDDFSIIISYEVEVNSFSKSENEEEVFLSSSKYVNVDKFKMINVRYFSFDDLIDEVISMVRDSIRYDKNNKSVKSAFGSLIMGSGVCVNYSHVAIGILRALGIPARYVIGLIPFSTKEAHAWIEVKIGDVWFPVDPTNGIKGMQYLKWAIGRDDNDVRSKIWYSKPVSFDFSFDWNFR,not soluble
16,MHSGAYFFYAAPRAGTAGKQAMPIEGIDYRLVFASDVNPRDGLGLECWRGEQPLFEVFRDDVGRRFVVNLFASDVPLELLEAIIPTARRELGDFPRRSASRGVAKPG,soluble
17,MPSTVEKMETEEYGKPDPNRLTTKLFAEYDALHEKQQNGMDEKKTMELLEPSEVFEIYSPATMEIISIAKEEGDILSDQSLKFLNEALRYTVVPRGYSPQGVDARTTVKNVATITKDLVDIGKIVFEKFPKYLQFFGPFGSLLKDILDMTKPEKKDPVLEELGNLKSQLESLSQKMVVQFDELKAFMVEKDFYNNYAHKASLLFDYMIDCVATIDTKTKERFEECYNEIKPERYVRDMLIKLESDVTNPLKVSMAGDELTSKATFQKWKDVLNSTLSQFLLLECFAMGFLHPKDESDSKKIIEKITYYTTLVEQWEKHYLNDRPYWPKLKKYVERIQGEGSFDKDEDMATELKKGLDSILTEDNFYLYVFEKNVHYEIHVVKPEMVFVSTNRGKFSVIISRAFEHSEYTCGQYWKKLDNIMYRRIERSIWYALETHMKEFVQWAVASYAKNDFKGCSYFLAFSSRNVAVRWTRKHGAEKGPGFINWDGQLTVFNVTTGTWNMLYMVGE,not soluble
18,MGSDKIHHHHHHTEDKDWSGGLKNSDLVFQTYLPTEGAKGTELSIRGNNFGEDISQVQVWVNEKEAEVISVTSTRIMARVAEASGSGVVKVRVGEVVYSYPDLFSYGYIRNVYTVAGNGQGTTVDGAYLQASVQWPIVMVYDKWDDAILFLQDEGEHRIRRMKDGKIETLCSTKSLVNNARSICFSLDGDTLFIGNDNANNYVANPVAVGMVTRKGGFKDLKSYIPSEKLAQPHINGIAVNPVDGSLFTYHWGRHVFRYNKATETCEYVITRDQFNELVVGLFPDADGNMQNIGGDGGYGGLAFSPDGKTLYWNGRDPYQGILKADYDLVTKKCTNLTRFAGNGVWGIIDGQGVSSRMDQPNQIAVDAEGNLLVTTVYGRTVRKITPEGYVSTYAGIGYQTGYVDGLAAEAKFNKPYGIAIDAQGNVYVGDCENWRIRVIKEE,not soluble
